Source: PMC3897919, “ERAD and protein import defects in a sec61 mutant lacking ER-lumenal loop 7” (BMC Cell Biology, 2013)

Biological target: T1, Sec61∆L7p (S. cerevisiae, UniProt P32915 1-480, amino acids 305–371 of wildtype Sec61p had been replaced by two amino acids …)
T1 construct: Sec61p, S. cerevisiae, lacking ER-lumenal loop 7 and the lumenal ends of TMDs 7 and 8; also called Sec61ΔL7p; Sec∆L7p; source: yeast KRY461 with sec61ΔL7pRS315 as sole copy of SEC61, in microsomes; solubilized in Triton-X100 or digitonin, or total protein reconstituted into proteoliposomes
T1 sequence (looked up): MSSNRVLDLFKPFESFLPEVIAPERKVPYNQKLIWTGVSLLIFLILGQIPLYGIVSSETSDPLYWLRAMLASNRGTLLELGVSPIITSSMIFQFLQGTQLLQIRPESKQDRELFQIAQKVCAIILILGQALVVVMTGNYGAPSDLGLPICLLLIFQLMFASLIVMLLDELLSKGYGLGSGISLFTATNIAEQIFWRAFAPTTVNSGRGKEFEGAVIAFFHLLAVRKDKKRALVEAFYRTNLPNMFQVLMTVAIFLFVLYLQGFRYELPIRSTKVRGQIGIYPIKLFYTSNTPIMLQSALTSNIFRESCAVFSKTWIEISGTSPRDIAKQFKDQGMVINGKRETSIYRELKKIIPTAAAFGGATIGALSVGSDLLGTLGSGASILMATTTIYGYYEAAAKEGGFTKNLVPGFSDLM
Assay: cross-linking; intact microsomes in B88, pH 7.9, treated with DSS for 20 min at 20°C, quenched with ammonium acetate; SDS-PAGE and immunoblotting with anti-Sec61p or anti-Sss1p antibodies
Settings: partners not purified

fold weaker crosslink than in wildtype membranes: ≥ 5 fold
B1: Sss1p (natural protein, UniProt P35179 1-80, looked up)
chain: MARASEKGEEKKQSNNQVEKLVEAPVEFVREGTQFLAKCKKPDLKEYTKIVKAVGIGFIAVGIIGYAIKLIHIPIRYVIV
notes: Sss1p, small subunit of the trimeric Sec61 complex, yeast; source: endogenous, yeast microsomes
